Like-named read-outs stand apart in the source and are kept apart here. Where no end group is shown, it is not given here.

The source of these data is patent US20260242478A1 (published 2026).

Test [1] has as its target T1, PSMA Fab (Fab biotinylated for capture on neutravidin plates (site not given)).
T1 construct: also called Anti-PSMA Fab; 006 PSMA Fab
The test is described as follows: phage ELISA: biotinylated PSMA Fab on neutravidin plate, clonal phage supernatant, anti-M13 HRP; blocking buffer alone. In general terms: ELISA stands for enzyme-linked immunosorbent assay.

Test [2] has as its target T1, PSMA Fab. The test is described as follows: phage ELISA: biotinylated PSMA Fab on neutravidin plate, clonal phage supernatant, anti-M13 HRP; wells pre-incubated with PSMA antigen as competitor.
Test [3] deals with T2, Anti-CD28 Fab (SEQ ID NOs: 696, 697).
T2 construct: Biotinylated and captured on neutravidin coated plates in the panning ELISA
The test is described as follows: phage binding ELISA; anti-CD28 Fab on plate pre-incubated with CD28 antigen as competitor, anti-M13 HRP detection.

The target is the same in test [4]. The test is described as follows: phage binding ELISA; biotinylated anti-CD28 Fab on neutravidin plate, clonal phage supernatant, anti-M13 HRP detection.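 Also: wells pretreated with blocking buffer, either plus or minus CD28 antigen, then given crude phage supernatant briefly without washing in between, then washed before anti-M13 HRP readout.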
Test [5] addresses T3, PSMA Fab (SEQ ID NOs: 19, 20).
T3 construct: also called 006 PSMA Fab; anti-PSMA Fab
The test is described as follows: competition ELISA, peptide titrated against 0.3 nM PSMA Fab on captured biotinylated PSMA.

Test [6] has as its target Ab-15. The test is described as follows: BLI (Octet): biotinylated peptide on sensor, Ab-15 titrated, 1:1 model. On the technique in general: In BLI a coated tip is dipped into the sample, and binding shifts an interference pattern.
Test [7] addresses Ab-15. The test is described as follows: binding ELISA: biotinylated peptide on neutravidin plate, Ab-15 titrated.
Test [8] addresses Ab-15. Described as above. This is another data set of the same source.
Test [9] concerns the target Ab-15. Put plainly: BLI (Octet): sensor loaded with 20 nM biotinylated peptide, 100 nM Ab-15.
The target of test [10] is Ab-15. The test is described as follows: BLI (Octet): sensor loaded with 200 nM biotinylated peptide, 100 nM Ab-15.
In test [11] the target is Ab-15. The test is described as above. This is another data set of the same source.
Test [12] has as its target Ab-15. Put plainly: competition ELISA: peptide titrated against 1 nM Ab-15; competitor plate-bound CD28.
Test [13] addresses Ab-15. Described as above. This is another data set of the same source.
The target of test [14] is T3, PSMA Fab (SEQ ID NOs: 19, 20). The test is described as follows: competition ELISA, peptide titrated against 0.3 nM PSMA Fab on captured biotinylated PSMA. The source holds these as a separate data set.
Test [15] shares this target. The description is as above. This is another data set of the same source.
Test [16] concerns the target Ab-15. Put plainly: BLI (Octet): biotinylated peptide on sensor, Ab-15 titrated, 1:1 model. This is another data set of the same source.
The target in another test is T4, Peptide-219 (cysteine pairing not given here; also: biotinylated, site not given here).
T4 peptide: HVKLCKPAWMCQGL
Put plainly: BLI, biotinylated peptide on sensor.

Another test addresses T5, Peptide-225 (cysteine pairing not given here; also: biotinylated, site not given here).
T5 peptide: IPKSCIPSWMCTGF
The test is described as follows: BLI, biotinylated peptide on sensor.

The target of another test is T6, Peptide-227 (cysteine pairing not given here; also: biotinylated, site not given here).
T6 peptide: LDNWCKPSWMCTGF
The test is described as follows: BLI, biotinylated peptide on sensor.

The target in another test is T7, Peptide-230 (cysteine pairing not given here; also: biotinylated, site not given here).
T7 peptide: VTKWCIPPWMCEVT
The test is described as follows: BLI, biotinylated peptide on sensor.

A further test concerns the target T8, Peptide-232 (cysteine pairing not given here; also: biotinylated, site not given here).
T8 peptide: LDKWCVPKWMCSGL
Put plainly: BLI, biotinylated peptide on sensor.

Another test has as its target T9, Peptide-233 (cysteine pairing not given here; also: biotinylated, site not given here).
T9 peptide: GEKWCIPDWMCSGF
The test is described as follows: BLI, biotinylated peptide on sensor.

Another test has as its target T10, Peptide-235 (cysteine pairing not given here; also: biotinylated, site not given here).
T10 peptide: VEKLCTPIWMCLGF
Put plainly: BLI, biotinylated peptide on sensor.

A further test has as its target T11, Peptide-236 (cysteine pairing not given here; also: biotinylated, site not given here).
T11 peptide: DVKLCKPEWMCYGL
Put plainly: BLI, biotinylated peptide on sensor.

The target in a further test is T12, Peptide-239 (cysteine pairing not given here; also: biotinylated, site not given here).
T12 peptide: IDIRCTPIWMCVGF
Put plainly: BLI, biotinylated peptide on sensor.

Another test deals with T13, Peptide-263 (cysteine pairing not given here; also: biotinylated, site not given here).
T13 peptide: AVKACIPEWMCIGF
The test is described as follows: BLI, biotinylated peptide on sensor.

The target of a further test is T14, Peptide-267 (cysteine pairing not given here; also: biotinylated, site not given here).
T14 peptide: FTNYCVPSWMCTGF
Put plainly: BLI, biotinylated peptide on sensor.

In a further test the target is T15, Peptide-268 (cysteine pairing not given here; also: biotinylated, site not given here).
T15 peptide: VEKVCKPVWMCVGF
The test is described as follows: BLI, biotinylated peptide on sensor.

The next test concerns the target T16, Peptide-270 (cysteine pairing not given here; also: biotinylated, site not given here).
T16 peptide: ESRLCVPAWMCAGF
The test is described as follows: BLI, biotinylated peptide on sensor.

Another test deals with T17, Peptide-271 (cysteine pairing not given here; also: biotinylated, site not given here).
T17 peptide: EDILCKPKWMCEGF
The test is described as follows: BLI, biotinylated peptide on sensor.

The next test addresses T18, Peptide-274 (cysteine pairing not given here; also: biotinylated, site not given here).
T18 peptide: ITPVCKPLWMCSGL
Put plainly: BLI, biotinylated peptide on sensor.

A further test has as its target T19, Peptide-277 (cysteine pairing not given here; also: biotinylated (site not given here)).
T19 peptide: VVIKCKPEWMCSGF
Put plainly: BLI, biotinylated peptide on sensor.

The next test has as its target T20, Peptide-282 (cysteine pairing not given here; also: biotinylated (site not given here)).
T20 peptide: IVVKCVPSWMCEGF
Put plainly: BLI, biotinylated peptide on sensor.

Another test has as its target T21, Peptide-283 (cysteine pairing not given here; also: biotinylated (site not given here)).
T21 peptide: TVAYCKPAWMCQGF
The test is described as follows: BLI, biotinylated peptide on sensor.

The next test addresses T22, Peptide-284 (cysteine pairing not given here; also: biotinylated (site not given here)).
T22 peptide: TEVRCTPPWMCLGF
The test is described as follows: BLI, biotinylated peptide on sensor.

A further test addresses T23, Peptide-285 (cysteine pairing not given here; also: biotinylated (site not given here)).
T23 peptide: VERLCTPAWMCHGF
Put plainly: BLI, biotinylated peptide on sensor.

The target in a further test is T24, Peptide-286 (cysteine pairing not given here; also: biotinylated (site not given here)).
T24 peptide: VLKYCIPDWMCAGI
Put plainly: BLI, biotinylated peptide on sensor.

B1: Phage-4013 (peptide, not shown: large carriers)
peptide: APRMCSPPWMCYEL
notes: Clonal phage of the Peptide-180 library
Regarding B1, the “phage binding ELISA signal” value stood at 0.416 in the test with PSMA Fab [1] and 0.0661 with PSMA Fab [2].

B2: Phage-1706 (clonal phage displaying a Peptide-92 library peptide, SEQ ID NO: 2002) (peptide)
peptide: GCAAGFHYTLSTCL
modifications: cysteine pairing not given here; also: displayed as fusion to phage pIII, linker and order of fusion not given here
notes: not shown: pIII filament protein of the bacteriophage to which the peptide is fused
For B2, the “Anti-CD28 Fab signal in the presence of CD28 (phage binding ELISA)” value (“Anti-CD28 Fab signal in the presence” for short) in [3] was 0.05. Further, in test [4], the “Anti-CD28 Fab signal (phage binding ELISA)” value was 0.42.

B3: Peptide-166 (peptide)
peptide: PLCGTEEVWWECRL
modifications: cysteine pairing not given here; also: biotinylated (site not given here)
notes: PSMA peptide mask (P2)
Take B3: the IC50 in test [5] turned out to be 19200 nM.

B4: Peptide-41 (peptide)
peptide: MDWCPRDLWVHCFA
modifications: cysteine pairing not given here; also: biotinylated, site not given here
notes: CD28 peptide mask
In turn, B4 gave a Kd with Ab-15 [6] of 15.1 nM. The t1/2 in the test with Ab-15 [6] came out at 15.5 min; with Ab-15 [10], 9.8 min. Also, the EC50 in the test with Ab-15 [7] was 4 nM; with Ab-15 [8], 1 nM. Besides, in the test with Ab-15 [9], the “Octet signal (20 nM peptide)” value was 0.509. The molecule also yielded an Octet signal in the test with Ab-15 [10] of 2.03. Moreover, in the test with Ab-15 [11], the “Octet signal (200 nM peptide)” value was 1.8. The IC50 with Ab-15 [12] came to 60 nM; with Ab-15 [13] it was 200 nM.

B5: Phage-1705 (clonal phage displaying a Peptide-92 library peptide, SEQ ID NO: 2001) (peptide)
peptide: SCGGGFHYSWPLCF
modifications: cysteine pairing not given here; also: displayed as fusion to phage pIII, linker and order of fusion not given here
notes: as for B2
For B5, in [3], the “Anti-CD28 Fab signal in the presence” value came to 0.15. In addition, the “Anti-CD28 Fab signal (phage binding ELISA)” value in test [4] was found to be 0.55.

B6: Phage-1704 (clonal phage displaying a Peptide-92 library peptide, SEQ ID NO: 2000) (peptide)
peptide: SCAAGAGYGWPQCL
modifications: cysteine pairing not given here; also: displayed as fusion to phage pIII, linker and order of fusion not given here
notes: as for B2
Take B6: the “Anti-CD28 Fab signal in the presence” value in test [3] came to 0.13. In addition, the “Anti-CD28 Fab signal (phage binding ELISA)” value in [4] was 0.55.

B7: Peptide-181 (peptide)
peptide: PELRCVPFWMCSFN
modifications: cysteine pairing not given here; also: biotinylated (site not given here)
notes: PSMA peptide mask (P2)
With B7, the IC50 in [14] stood at 11200 nM; in [15], 26100 nM.

B8: Phage-4011 (peptide, not shown: large carriers)
peptide: GWRQCEPVWMCSGF
notes: as for B1
On to B8, for which the “phage binding ELISA signal” value with PSMA Fab [1] came to 0.423; in the test with PSMA Fab [2], 0.0672.

B9: Peptide-71 (peptide)
peptide: IDWCPRYLWDECYN
modifications: cysteine pairing not given here; also: biotinylated, site not given here
notes: CD28 peptide mask
In the test with Ab-15 [16], B9 yielded a Kd of 16 nM and a t1/2 of 9.1 min. In the test with Ab-15 [8], this molecule showed an EC50 of 2.1 nM. For the same molecule, the “Octet signal (200 nM peptide)” value with Ab-15 [11] was 1.52. The molecule further registered an IC50 with Ab-15 [13] of 140 nM.

B10: Peptide-158 (peptide)
peptide: YECHQGLFHRWCVN
modifications: cysteine pairing not given here; also: biotinylated (site not given here)
notes: PSMA peptide mask (P2)
B10: the IC50 in [5] is 17300 nM.

B11: Phage-4012 (peptide, not shown: large carriers)
peptide: MRSVCVPSWMCSGF
notes: as for B1
On to B11, for which the “phage binding ELISA signal” value with PSMA Fab [1] amounted to 0.422; in the test with PSMA Fab [2] it was 0.176.

B12: Peptide-178 (peptide)
peptide: PDCVYHSFWGYSCR
modifications: cysteine pairing not given here; also: biotinylated (site not given here)
notes: PSMA peptide mask (P2)
B12 returned an IC50 in test [5] of 20800 nM.

B13: Peptide-175 (peptide)
peptide: HCKFHDYHSWYMCY
modifications: cysteine pairing not given here; also: biotinylated (site not given here)
notes: PSMA peptide mask (P2)
In test [5], B13 returned a half-inhibitory concentration (IC50) of 17800 nM.

B14: Phage-4010 (peptide, not shown: large carriers)
peptide: FEVRCVPTWMCAGQ
notes: as for B1
B14: the “phage binding ELISA signal” value with PSMA Fab [1] came to 0.427; with PSMA Fab [2] it was 0.069.

B15: PSMA Fab (SEQ ID NOs: 19, 20) (Fab, V domains shown)
VH: QVQLVESGGGVVQPGRSLRLSCAASGFAFSRYGMHWVRQAPGKGLEWVAVIWYDGSNKYYADSVKGRFTISRDNSKNTQYLQMNSLRAEDTAVYYCARGGDFLYYYYYGMDVWGQGTTVTVSS
VL: DIQMTQSPSSLSASVGDRVTITCRASQGISNYLAWYQQKTGKVPKFLIYEASTLQSGVPSRFSGGGSGTDFTLTISSLQPEDVATYYCQNYNSAPFTFGPGTKVDIKR
notes: also called 006 PSMA Fab; anti-PSMA Fab
For the molecule B15, the binding result with Peptide-219, with Peptide-225, with Peptide-227, in the test with Peptide-230, with Peptide-232 and with Peptide-233 was “binds” each time. Besides, the binding result with Peptide-235, in the test with Peptide-236, in the test with Peptide-239, in the test with Peptide-263, in the test with Peptide-267 and with Peptide-268 was “binds” each time. In addition, the binding result in the test with Peptide-270, with Peptide-271, with Peptide-274, with Peptide-277, with Peptide-282 and with Peptide-283 was “binds” throughout. Moreover, the binding result with Peptide-284, with Peptide-285 and with Peptide-286 was “binds” throughout.

The term IC50 denotes the concentration at which inhibition is half-maximal. Low values mean greater potency, high ones weaker potency. As a reminder, the Kd is the concentration at which binding is half-saturated. By EC50 is commonly meant the concentration that produces a half-maximal response. Read a low EC50 as a more potent agent.
